Target: purified full-length human BACE with six C-terminal His residues, expressed in Sf9 insect cells (human) (UniProt P56817)
Test: competitive radioligand binding assay, cholic acid against Tween-20 in the binding buffer

purified full-length human BACE with six C-terminal His residues, expressed in Sf9 insect cells (human), sequence (P56817 other isoform, or with tags, fused parts or gaps limits assumed): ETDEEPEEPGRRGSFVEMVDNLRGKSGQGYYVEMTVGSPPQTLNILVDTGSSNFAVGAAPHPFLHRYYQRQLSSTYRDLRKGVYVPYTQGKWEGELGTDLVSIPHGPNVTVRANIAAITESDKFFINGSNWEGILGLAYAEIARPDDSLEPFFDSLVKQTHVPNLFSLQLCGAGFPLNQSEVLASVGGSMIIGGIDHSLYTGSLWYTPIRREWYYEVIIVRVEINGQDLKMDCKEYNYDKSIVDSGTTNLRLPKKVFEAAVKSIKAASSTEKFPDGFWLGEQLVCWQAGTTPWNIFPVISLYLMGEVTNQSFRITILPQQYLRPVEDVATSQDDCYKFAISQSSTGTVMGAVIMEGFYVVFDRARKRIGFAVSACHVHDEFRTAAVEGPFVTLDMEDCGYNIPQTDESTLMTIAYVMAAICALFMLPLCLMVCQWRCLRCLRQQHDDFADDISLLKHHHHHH

peptide H-4848 (Bachem), described in Nature, 1999, 402, 537
fold reduction of IC-50 with cholic acid compared to Tween-20: 3 to 4 times
